The source of these data is patent US20220048951A1.

Several values for one entry are separate records, joined by “and”; a condition that tells them apart may be missing. Equal values may be shown once.

The test addresses T1, CD20 on CD20 positive lymphoma cells (Daudi, Raji) (human) (UniProt P11836).
T1 sequence: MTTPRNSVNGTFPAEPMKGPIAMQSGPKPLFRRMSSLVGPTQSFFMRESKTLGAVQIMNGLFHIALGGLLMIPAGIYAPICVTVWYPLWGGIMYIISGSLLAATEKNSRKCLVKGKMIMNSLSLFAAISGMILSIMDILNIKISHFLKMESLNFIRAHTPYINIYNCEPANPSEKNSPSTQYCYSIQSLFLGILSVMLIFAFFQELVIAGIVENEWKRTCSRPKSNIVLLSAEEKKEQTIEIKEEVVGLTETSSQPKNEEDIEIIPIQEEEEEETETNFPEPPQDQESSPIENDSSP
In words: cell-based or functional assay.

B1: anti-CD20-Phor18 minibody conjugate Fv-CH3-CH3-Fv-Phor18 (protein)
chain: DIQLTQSPAILSASPGEKVTMTCRASSSVSYIHWFQQKPGSSPKPWIYATSNLASGVPVRFSGSGSGTSYSLTISRVEAEDAATYYCQQWTSNPPTFGGGTKLEIGSTSGGGSGGGSGGGGSSVQLQQPGAELVKPGASVKMSCKASGYTFTSYNMHWVKQTPGRGLEWIGAIYPGNGDTSYNQKFKGKATLTADKSSSTAYMQLSSLTSEDSAVYYCARSTYYGGDWYFDVWGQGTTVTVSSGQPREPQVYTLPPSRDELTKNQVSLTCLVKGFYPSDIAVEWESNGQPENNYKTTPPVLDSDGSFFLYSKLTVDKSRWQQGNVFSCSVMHEALHNHYTQKSLSLSPGKGSTSGGGSGGGSGGGGSSGQPREPQVYTLPPSRDELTKNQVSLTCLVKGFYPSDIAVEWESNGQPENNYKTTPPVLDSDGSFFLYSKLTVDKSRWQQGNVFSCSVMHEALHNHYTQKSLSLSPGKVQLQQPGAELVKPGASVKMSCKASGYTFTSYNMHWVKQTPGRGLEWIGAIYPGNGDTSYNQKFKGKATLTADKSSSTAYMQLSSLTSEDSAVYYCARSTYYGGDWYFDVWGQGTTVTVSSGSTSGGGSGGGSGGGGSSDIQLTQSPAILSASPGEKVTMTCRASSSVSYIHWFQQKPGSSPKPWIYATSNLASGVPVFSGSGSGTSYSLTISRVEAEDAATYYCQQWTSNPPTFGGGTKLEIGSKFAKFAKKFAKFAKKFAK
As for B1, the IC50 nM, cell viability 24 h, Daudi (CD20 positive) came out at 10.5 nM and the IC50 nM, cell viability 46 h, Daudi (CD20 positive) stood at 3.6 nM.

B2: anti-CD20 scFv-Phor18 conjugate (C-terminus) (scFv)
scFv: HHHHHHDIQLTQSPAILSASPGEKVTMTCRASSSVSYIHWFQQKPGSSPKPWIYATSNLASGVPVRFSGSGSGTSYSLTISRVEAEDAATYYCQQWTSNPPTFGGGTKLEIGSTSGGGSGGGSGGGGSSVQLQQPGAELVKPGASVKMSCKASGYTFTSYNMHWVKQTPGRGLEWIGAIYPGNGDTSYNQKFKGKATLTADKSSSTAYMQLSSLTSEDSAVYYCARSTYYGGDWYFDVWGQGTTVTVSSGSKFAKFAKKFAKFAKKFAK
Turning to B2, the IC50 nM, cell viability 24 h, Daudi (CD20 positive) was 10 nM; the IC50 nM, cell viability 46 h, Daudi (CD20 positive) amounted to 1.5 nM; the IC50 nM, membrane integrity 2 h, Daudi (CD20 positive) stood at 110 nM; the IC50 nM, membrane integrity 5 h, Daudi (CD20 positive) worked out at 112 nM. Besides, the caspase 3/7 activation relative to staurosporine (100%), CD20 positive cells, 5 h is 18.3% and 29.3%.
